{"source": "paper PMC7317968", "about": "“A GM1b/asialo‐GM1 oligosaccharide‐binding R‐type lectin from purplish bifurcate mussels Mytilisepta virgata and its effect on MAP kinases” (The Febs Journal, 2019)", "proteins": {"B1": {"name": "Mytilisepta virgata R-type lectin SeviL (natural protein, UniProt A0A646QV53 1-129, looked up)", "chain": "MSSVTIGKCYIQNRENGGRAFYNLGRKDLGIFTGKMYDDQIWSFQKSDTPGYYTIGRESKFLQYNGEQVIMSDIEQDTTLWSLEEVPEDKGFYRLLNKVHKAYLDYNGGDLVANKHQTESEKWILFKAY", "notes": "SeviL (variant SeviL-1), R-type (ricin B-type) lectin of Mytilisepta virgata, 129 amino acids, 15 kDa; Native protein isolated from tissue; also called SeviL-1; mytvir1; source: purified from Mytilisepta virgata mantles and gills (lactosyl-agarose column, eluted with 50 mM lactose)"}}, "target": "the molecule itself", "test": "AUC; sedimentation velocity, sample about 1.0 mg/mL, 50 mM potassium phosphate pH 7.4, 0.1 M NaCl, 293 K, c(s) analysis in SEDFIT converted to c(M); native mass 30 kDa", "data": [{"protein": "B1", "values": [{"measurement": "stoichiometry N", "value": 2}]}]}
